The results in this text go back to publication doi:10.1101/581934.

The data set concerns the target MeCP2-MBD WT (Homo sapiens, UniProt P51608 80-164). Kind of data set: ITC. In general terms: ITC needs no label: the signal is the heat of the interaction.

MeCP2-MBD WT, sequence (P51608 80-164): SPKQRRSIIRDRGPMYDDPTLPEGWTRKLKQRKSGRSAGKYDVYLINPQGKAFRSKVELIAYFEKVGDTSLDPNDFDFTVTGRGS

B1: Mutated MARs DNA 16mer (dsDNA)
DNA 1: GCCCTGGTGTAGTGGC
DNA 2: GCCACTACACCAGGGC
One may read the Kd as the constant that tells how readily two partners part at equilibrium. Read a low Kd as tighter binding. The molecule B1 came in with a Kd of 3.8 ± 0.7 µM.

B2: MARs DNA 16mer (dsDNA)
DNA 1: GTGCAGGTGTCCTTAA
DNA 2: TTAAGGACACCTGCAC
In turn, B2 registered a Kd of 2.8 ± 0.2 µM.
